According to article PMC3343699:
Read-outs that look alike come from different tables or passages of the source. Values belong to the substance of their own block, whether it stands above or below them.

How the values were obtained:
[1] = molecular target: Recombinant Aα221–391 fragment corresponding to the human fibrinogen αC-connector (human); test: optical trap-based force spectroscopy
[2] = molecular target: Recombinant Aα392–503 fragment corresponding to the N-terminal subdomain of the human fibrinogen αC-domain (human); test: optical trap-based force spectroscopy
[3] = molecular target: Lys429Cys/Thr463Cys double mutant of the bovine Aα406–483 fragment, first fraction (Fr-1) (bovine); test: SEC
[4] = molecular target: Lys429Cys/Thr463Cys double mutant of the bovine Aα406–483 fragment, first fraction (Fr-1) (bovine); test: SEC; remark: listed apart in the source
[5] = molecular target: Lys429Cys/Thr463Cys double mutant of the bovine Aα406–483 fragment, first fraction (Fr-1) (bovine); test: SEC; remark: listed apart in the source

cumulative binding probability [1]: 46% | rupture force peak [1]: 26 pN
Substance: Recombinant Aα504–610 fragment corresponding to the C-terminal subdomain of the human fibrinogen αC-domain (domain or fragment)

cumulative binding probability [1]: 51% | rupture force peak [1]: 22 pN
Substance: Recombinant Aα392–610 fragment corresponding to the human fibrinogen αC-domain (domain or fragment)

cumulative binding probability [2]: 67% | rupture force peak 1 [2]: 16 pN | rupture force peak 2 [2]: 32 pN | rupture force peak 3 [2]: 48 pN
Substance: Recombinant Aα392–503 fragment corresponding to the N-terminal subdomain of the human fibrinogen αC-domain (domain or fragment)

oligomers (%) [3]: 31.7% | oligomers (%) [4]: 5.9% | oligomers (%) [5]: 12.4%
Substance: Lys429Cys/Thr463Cys double mutant of the bovine Aα406–483 fragment, first fraction (Fr-1) (domain or fragment)
